In article PMC5954021:

Assay: western blot, TGF-β-treated MCF-10A
Details: glycan lost, control: control sgRNA cells

In the case of PD-L1: STT3A knockdown, the expression_or_secretion is reported as “no change”.

For PD-L1: STT3A/3B knockdown, the expression_or_secretion was “decreases”.

With PD-L1: STT3B knockdown the expression_or_secretion was “no change”.
